How the values were obtained:
[1] = molecular target: EEEV virus-like particles (VLPs), strain PE-6 (Eastern equine encephalitis virus, strain PE-6)
[2] = molecular target: EEEV virus-like particles (VLPs), strain FL93-939, wild type (Eastern equine encephalitis virus, strain FL93-939)

| Substance | Kd [1] | fold higher affinity than LA(2-3) [1] | Kd [2] |
| --- | --- | --- | --- |
| monovalent VLDLR LA(1-2) (from UniProt P98155 31-110) (receptor) | 1000 nM | 10 fold | – |
| monovalent VLDLR LA(1-3) (from UniProt P98155 31-151) (receptor) | 33.8 nM | – | – |
| monovalent VLDLR LA(1-4) (from UniProt P98155 28-190) (receptor) | 37 nM | – | – |
| monovalent VLDLR LA(1-5) (from UniProt P98155 28-231) (receptor) | 14.5 nM | – | – |
| monovalent VLDLR LA(1-6) (from UniProt P98155 28-275) (receptor) | 15 nM | – | 50 nM |
| monovalent VLDLR LA(2-3) (from UniProt P98155 70-151) (receptor) | 14000 nM | – | – |
